From the supplement of paper PMC9170038 come the findings set out here.

The series deals with MS2 coat protein. Nature of the series: apparent KD of MS2 coat protein; designed switch direction (-1 OFF switch, 1 ON switch): 1; higher = weaker reporter binding. Put shortly:
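Designed RNA switches with common flanks were transcribed on Illumina chips by stalled E. coli RNA polymerase and titrated with SNAP-549-labelled MS2 coat protein, from 0.7 or 1.5 nM doubling to 3 µM, in Tris-HCl pH 7.5 buffer with KCl, MgCl2, BSA, DTT, tRNA and Tween-20. Steps lasted 0.8–1.5 h (lowest) to 10–20 min (highest). Titrations ran without input, with 200 uM small-molecule ligand, or with an oligonucleotide input. Normalised cluster fluorescence was curve-fitted, and apparent KD is the per-design median over clusters.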

The mark [1] stands for this setting: input ligand: microRNA oligo, concentration not stated.
Where [2] appears, read: Eterna round: R95, input ligand: FMN 200 uM.
Setting [3] is: Eterna round: R95, input ligand: microRNA oligo, concentration not stated.
The mark [4] stands for this setting: Eterna round: R95, input ligand: none.

For the sequence “GGUGCGAAUAAAGCCUACAUGAGGAUCACCCAUGUAUGUAGGCAGGAUAUCGUUUGCUUUGCAAACGAGAAGGGCUGACGCACC [JL SSNG3 1.17] (Eterna round: R96, puzzle: Same State NG 3)”, the “apparent KD of MS2 coat protein” value is, setting by setting: (input ligand: FMN 200 uM) 27.4 nM; under setting [1], 37.7 nM; (input ligand: none) 63.6 nM.
Turning to “GUUGAGAAAUGAGGAUAUGCAUGGAAGACACAUGAGGAUCACCCAUGUGGGAGGGAAACCAGGAGGUAGAAGGCAUUGGGAAAC [AK SSNG2-V2-24] (Eterna round: R96, puzzle: Same State NG 2)”, the “apparent KD of MS2 coat protein” value (input ligand: FMN 200 uM) was 35.7 nM, the “apparent KD of MS2 coat protein” value under setting [1] stood at 35.5 nM and the “apparent KD of MS2 coat protein” value (input ligand: none) came out at 55.1 nM.
In the case of “GGUCCAGCCUGAGCUGGACAAAAGCAUGUACAUGAGGAUCACCCAUGUCAUGUACAAGCUUUUUGCUCGUCAUAAAU [Mat - hsa-mir-208a - 96] (puzzle: Sensor for hsa-mir-208a)”, the “apparent KD of MS2 coat protein” value came to 702 nM under setting [2], 13.1 nM under setting [3] and 668 nM under setting [4].
Consider “UGGCUCAGAGCAGGAUAUAUGUGGUCACAUGAGGAUCACCCAUGUCUCGAGCUUCGGCUCGAGGCAUAGAAGGGCUCUGAGCCU [SSNG2/5-B3] (Eterna round: R96, puzzle: Same State NG 2)”, for which the “apparent KD of MS2 coat protein” value stood at 704 nM (input ligand: FMN 200 uM), 21.4 nM under setting [1] and 85.9 nM (input ligand: none).
As for “UGUUGUAUUACAGGAUAUCUAGUAUUUUUAUUAAGAGAAGGGUAUUCACAUGAGGAUCACCCAUGUAUAUACGAGGAAGUUGUG [JMF's solution 54] (Eterna round: R96, puzzle: Same State NG 1)”, the “apparent KD of MS2 coat protein” value under setting [1] turned out to be 33.7 nM.
“CCGGUACAUGAGGAUCACCCAUGUUGCGGCAGGACAGGAUAUGGGCGAGAAUAUGUAGGCCCAGAAGGGUCAUCAC [Qure] (puzzle: Same State 1)”: the “apparent KD of MS2 coat protein” value runs as follows: under setting [2], 24.1 nM; under setting [3], 42.1 nM; under setting [4], 38.9 nM.
For the sequence “UGUUGUUAAUUAGGAUAUGGUCACAUGAGGAUCACCCAUGUAAUGUCGAUGCUAUGUGGAUCCGAUCAGAAGGAAUGGCUAACA [SameState NG2 #95] (Eterna round: R96, puzzle: Same State NG 2)”, the “apparent KD of MS2 coat protein” value is, setting by setting: (input ligand: FMN 200 uM) 201 nM; under setting [1], 121 nM; (input ligand: none) 204 nM.
“AAACAGUCGCUGCGGCGACCACAUGAGGAUCACCCAUGUACAUAGGAUAUCGCCUAAAAUACUGGCGAGAAGGGUGAUUAAAGA [Vegeonor] (Eterna round: R96, puzzle: Same State NG 3)”: the “apparent KD of MS2 coat protein” value reads like this: (input ligand: FMN 200 uM) 90.4 nM; under setting [1], 12.4 nM; (input ligand: none) 55.9 nM.
For “CCCUCACAUGAGGAUCACCCAUGUCCUAGCCCGUCAGGAUAUAGCCCGCAUCCGCUGCGGCUAGAAGGGACAGCUG [JR_SS001_Sub611] (Eterna round: R96, puzzle: Same State 1)” the same measures were 177 nM, 152 nM and 232 nM.
On to “UGAACCGUCACAGGAUAUCAUGCGAAAAUUGCGUGAGAAGGGUGGAUGUUGUGUUCAAAGAUGUACAUGAGGAUCACCCAUGUU [SameState NG1 #47] (Eterna round: R96, puzzle: Same State NG 1)”, for which the “apparent KD of MS2 coat protein” value runs as follows: (input ligand: FMN 200 uM) 61 nM; under setting [1], 85.7 nM; (input ligand: none) 170 nM.
“CCCAUGAAUAGUCAGGAUAUACGAUUUUAUACAUGAGGAUCACCCAUGUUAAGACUCCUCAAUAAGUAGAAGGGACUAUUUAUAA [Tesla Same State 2] (puzzle: Same State 2)”: the “apparent KD of MS2 coat protein” value under setting [2] is 154 nM, the “apparent KD of MS2 coat protein” value under setting [3] came out at 144 nM and the “apparent KD of MS2 coat protein” value under setting [4] came to 103 nM.
Turning to “AUGCUCGUGUGAGGAUAUGCCGCCGUUUCGGCUGCAGAAGGUGCUACGUUACAUGAGGAUCACCCAUGUCUCUGUUGUUUCGUG [salish99_SSNG1_r04_942] (Eterna round: R96, puzzle: Same State NG 1)”, under setting [1], the “apparent KD of MS2 coat protein” value came to 18.7 nM.
Take “UAUUAGAUCCGAGGAUAUCCUUAUUAGAAACAUGAGGAUCACCCAUGUAAAGGGAAUUAUUUGUAGGAGAAGGCGGAUUUAGUU [JR_SSNG2_Sub056] (Eterna round: R96, puzzle: Same State NG 2)”: the “apparent KD of MS2 coat protein” value under setting [1] is 41.7 nM.
“AUACAAAACACAAAUACAAACAAAUACAAACAUGAGGAUCACCCAUGUGCAAUACGACUCUUUAUGGCUGGUCUUCA [Onvete] (Eterna round: R96, puzzle: Sensor for hsa-mir-208a)”: the “apparent KD of MS2 coat protein” value worked out at 87.7 nM (input ligand: FMN 200 uM), 60.1 nM under setting [1] and 107 nM (input ligand: none).
As for “GGGCCAGCCUGUGCUGGGCUUUAGCAUGCACAUGAGGAUCACCCAUGUCGUGUACAUGCUUUUUGCUCGUCUUUAAA [Photon Torp-08] (puzzle: Sensor for hsa-mir-208a)”, the “apparent KD of MS2 coat protein” value under setting [2] was determined as 80.2 nM, the “apparent KD of MS2 coat protein” value under setting [3] turned out to be 17.4 nM and the “apparent KD of MS2 coat protein” value under setting [4] stood at 84.1 nM.
In the case of “AUAUUUAAUGCAGGAUAUGAUUAACAUGAGGAUCACCCAUGUGGUGUUGUGAGUAAGGAGAGUGAUCAGAAGGGCAUUUUUUUU [JMF's solution 100] (Eterna round: R96, puzzle: Same State NG 2)”, the “apparent KD of MS2 coat protein” value runs as follows: (input ligand: FMN 200 uM) 821 nM; under setting [1], 322 nM; (input ligand: none) 467 nM.
“GAGCCAGUCCGAGGAUAUUCAUAUAAAUUAAAUACAUGAGGAUCACCCAUGUAGGCGGAGCCUUGGGAGAAGGCGGACUGGCUC [Xeonanisa>>5] (Eterna round: R96, puzzle: Same State NG 2)”: the “apparent KD of MS2 coat protein” value stood at 22.7 nM (input ligand: FMN 200 uM), 35.9 nM under setting [1] and 58.4 nM (input ligand: none).
For the sequence “AUUAAACAUGAGGAUCACCCAUGUCAACAAAGUCGAGGAUAUGGGCAAAUAAAAUAAGAACCAGAAGGCGAAUAUU [salish99_ss1_r3_080] (puzzle: Same State 1)”, the “apparent KD of MS2 coat protein” value under setting [2] was determined as 38.5 nM, the “apparent KD of MS2 coat protein” value under setting [3] amounted to 407 nM and the “apparent KD of MS2 coat protein” value under setting [4] was 180 nM.
In the case of “AUUCGUUAGAUAGGAUAUCACCAUACAUGAGGAUCACCCAUGUUUACCACGCUGGUUUUUCAUACUGAGAAGGAUCUUGAUGAC [JR_SSNG2_Sub006] (Eterna round: R96, puzzle: Same State NG 2)”, the “apparent KD of MS2 coat protein” value stood at 20.7 nM (input ligand: FMN 200 uM), 16.7 nM under setting [1] and 30 nM (input ligand: none).
Consider “GGUAUCGGCACAGGAUAUGCUAUCCUUUGGGUAGCAGAAGGGUGGACAUGAGGAUCACCCAUGUGGGUGCCAGGGCGUGAGCCC [JL SSNG1 1.85] (Eterna round: R96, puzzle: Same State NG 1)”, for which the “apparent KD of MS2 coat protein” value is, setting by setting: (input ligand: FMN 200 uM) 912 nM; under setting [1], 363 nM; (input ligand: none) 907 nM.
As to “GACAAUCUAUCUGAGGAUAUCAUGAAUAAAACAUGAGGAUCACCCAUGUGCAGGAGAACUGCAAAUGAGAAGGCAGAUAGAUUGG [Mat - Same State 2 - Mod - D10] (puzzle: Same State 2)”, the “apparent KD of MS2 coat protein” value is, setting by setting: under setting [2], 10 nM; under setting [3], 37.2 nM; under setting [4], 26.9 nM.
For “UUUAUUUAUGCAGGAUAUGAUUAACAUGAGGAUCACCCAUGUGGUGUUGUGAGUAAGGAGAGUGAUCAGAAGGGCAUUUUUUUU [JMF's solution 76] (Eterna round: R96, puzzle: Same State NG 2)”, the “apparent KD of MS2 coat protein” value runs as follows: (input ligand: FMN 200 uM) 610 nM; under setting [1], 396 nM; (input ligand: none) 487 nM.
In the same order, the values of “CUAAAAGGAUGAGGAUAUGCAGAGGAUCACCCUGUAGAAGGCAACAGAUGAGGAUAUGCAGAGGAUCACCCUGUAGAAGGCAAC [pwkr ssNG DX.2] (Eterna round: R96, puzzle: Same State NG 1)” are 233 nM, 56.8 nM and 94.1 nM.
“AUAAAACAUGAGGAUCACCCAUGUCAACAAAGUCGAGGAUAUGGGCAAAUAAAAUAAGAUCCAGAAGGCGAAUAAU [salish99_ss1_r3_016] (puzzle: Same State 1)”: the “apparent KD of MS2 coat protein” value is, setting by setting: under setting [2], 97.3 nM; under setting [3], 36.3 nM; under setting [4], 92.7 nM.
Regarding “ACGCAGCUGGGUGAGGAUAUCGGUGGUACUACAUGAGGAUCACCCAUGUCCGAAGCUCGGACCUCCGAGAAGGCGCCCGGCUGCG [Soinraesar Omei Mod 3] (puzzle: Same State 2)”, the “apparent KD of MS2 coat protein” value under setting [3] is 184 nM.
Consider “GGAGCCGGCCUAGGAUAUUUCAUACAAAAACAUGAGGAUCACCCAUGUAGGCCAGAAGGCCUUGGGAAGAAGGAGGUCGGCUCC [Loop Effect - C25] (Eterna round: R96, puzzle: Same State NG 2)”, for which the “apparent KD of MS2 coat protein” value is, setting by setting: (input ligand: FMN 200 uM) 14.5 nM; under setting [1], 16.9 nM; (input ligand: none) 34.2 nM.
For “UAGUGAUUGCAAGGAUAUGCUUAUGUUUAAUUUUUUUUAAUAUCUAACAUGAGGAUCACCCAUGUGCAGAAGGUGCUUGAUUUG [JR_SSNG2_Sub075] (Eterna round: R96, puzzle: Same State NG 2)”, the “apparent KD of MS2 coat protein” value under setting [1] was determined as 54.2 nM.
On to “UGGCUCAGACGAGGAUAUAUGUGGUCACAUGAGGAUCACCCAUGUCUCGAGCUUCGGCUCGAGGCAUAGAAGGCGUCUGAGCCU [SSNG2/5-A3] (Eterna round: R96, puzzle: Same State NG 2)”, for which the “apparent KD of MS2 coat protein” value by setting is: (input ligand: FMN 200 uM) 200 nM; under setting [1], 7.4 nM; (input ligand: none) 148 nM.
On to “CUAACAACAGGUUGCAGUGCUCGUCUCUAACAUGAGGAUCACCCAUGUAAUAGCCCGGUGGAAGCGCUCGGGUCACC [Tearor] (puzzle: Sensor for hsa-mir-208a)”, for which the “apparent KD of MS2 coat protein” value stood at 28.3 nM under setting [2], 34.5 nM under setting [3] and 30.9 nM under setting [4].
